The source of these data is paper PMC3804602, “Nanobody Mediated Crystallization of an Archeal Mechanosensitive Channel” (PLoS ONE, 2013).

To fix the notation:
T1: T2 mechanosensitive channel from Thermoplasma volcanium, tag free (Thermoplasma volcanium)
T1 construct: TVN0821, gene amplified from genomic DNA (DSM 4299 [GSS1*]); 297 amino acids per monomer; Cloned into pNIC28-Bsa4 (TEV site) and pET46 (Enterokinase site); In detergent (0.03 % DDM); also called T2 channel; tag free T2-channel; source: E. coli C43(DE3), purified (DDM solubilised, IMAC, tag cleavage, second IMAC, gel filtration); not shown: His-tag, N-terminal, cleaved
T1 chain: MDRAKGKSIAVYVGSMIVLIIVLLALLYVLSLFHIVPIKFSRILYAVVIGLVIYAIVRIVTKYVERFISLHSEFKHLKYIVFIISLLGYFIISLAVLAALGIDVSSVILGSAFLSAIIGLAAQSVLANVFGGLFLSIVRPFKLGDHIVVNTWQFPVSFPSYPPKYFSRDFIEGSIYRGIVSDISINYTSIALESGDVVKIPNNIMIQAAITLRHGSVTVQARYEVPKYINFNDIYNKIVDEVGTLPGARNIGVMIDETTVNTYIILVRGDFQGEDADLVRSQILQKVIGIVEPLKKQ

B1: nanobody 9 (VHH)
VHH: QVQLQESGGGLVQPGGSLRLSCAASGSIFGINAMGWYRRPPGKQRELVAVITSGGSTNYADSVKGRFTISRGNAKNTVYLQMNSLKAEDTAVYYCNAYTDFVRPYNHWGQGTQVTVSS
notes: pHEN6 vector; also called Nb 9; CA-number 3390; source: E. coli WK6 periplasm, purified (IMAC, gel filtration); not shown: His-tag, C-terminal, kept
B2: nanobody 19 (VHH)
VHH: QVQLQESGGGLVQPGGSLRLSCAASGSISRLNHMGWYRQPPGKQRELVAVITSGGSTDYADSVKGRFTISSGNAKNTVYLQMNSLKTEDTAVYYCNAYSEFIRPYTLWGQGTQVTVSS
notes: pHEN6 vector; also called Nb 19; CA-number 3402; source: E. coli WK6 periplasm, purified (IMAC, gel filtration); not shown: His-tag, C-terminal, kept
B3: nanobody 3 (VHH)
VHH: QVQLQESGGGLVQPGGSLRLSCAASGFTLDYYAIGWFRQTPGKEREGVSCISSSDDSTYYADSVKGRFTISRDNAKNTVYLQMNSLKPEDTAVYYCATGWACTLVAGTNGMDYWGKGTQVTVSS
notes: pHEN6 vector; also called Nb 3; CA-number 3382; source: E. coli WK6 periplasm, purified (IMAC, gel filtration); not shown: His-tag, C-terminal, kept
B4: nanobody 1 (VHH)
VHH: QVQLQESGGGLVQPGGSLRLSCAASGRIPFITAMGWYRQAPGKQRELLASVTNSEITNYADSVKGRFTISRDNARNRVYLQMNSLKPEDTAVYYCNVKRAGNLIDYWGQGTQVTVSS
notes: pHEN6 vector; also called Nb 1; CA-number 3379; source: E. coli WK6 periplasm, purified (IMAC, gel filtration); not shown: His-tag, C-terminal, kept
B5: nanobody 6 (VHH)
VHH: QVQLQESGGGLVQPGGSLRLSCAASGSIFSINAMGWYRQAPGKQRELVAVLTRRGSTNYADSMKGRFTISRDNTKNTVYLQMNSLKPEDTAVYYCNADLEGRPLYWGQGTQVTVSS
notes: pHEN6 vector; also called Nb 6; CA-number 3387; source: E. coli WK6 periplasm, purified (IMAC, gel filtration); not shown: His-tag, C-terminal, kept
B6: nanobody 7 (VHH)
VHH: QVQLQESGGGLVQPGGSLRLSCTASGTIFMIDAMGWYRQAPGKQRELVALINSGGSTNYADSVKGRFAISRNNARSTVYLQMNSLKPEDTAVYYCNADTWNGVRRDVYWGQGTQVTVSS
notes: pHEN6 vector; also called Nb 7; CA-number 3388; source: E. coli WK6 periplasm, purified (IMAC, gel filtration); not shown: His-tag, C-terminal, kept
B7: nanobody 23 (VHH)
VHH: QVQLQESGGGLVQPGGFLTLSCAASGSPFSFGAMGWYRQAPGKQRELVAIITRRGSTNYADSVKGRFTVSSDNAKNTVYLQMNSLKPEDTAVYYCYHQTAPVADVTWGQGTQVTVSS
notes: pHEN6 vector; also called Nb 23; CA-number 3407; source: E. coli WK6 periplasm, purified (IMAC, gel filtration); not shown: His-tag, C-terminal, kept
B8: nanobody 11 (VHH)
VHH: B7 VHH with P14A, F17S, T19R, S27G, S30T, R53K, R54K, S71R
notes: pHEN6 vector; also called Nb 11; CA-number 3393; source: E. coli WK6 periplasm, purified (IMAC, gel filtration); not shown: His-tag, C-terminal, kept
B9: nanobody 18 (VHH)
VHH: QVQLQESGGGLVQPGGSLRLSCAASGSIFSINAMGWYRQAPGKQRELVAFITKVGNTNYADSVKDRFAISRDNAKNTVYLQMNSLKPEDTAVYYCYADIENSSNYKQDFYWGQGTQVTVSS
notes: pHEN6 vector; also called Nb 18; CA-number 3401; source: E. coli WK6 periplasm, purified (IMAC, gel filtration); not shown: His-tag, C-terminal, kept
B10: nanobody 8 (VHH)
VHH: QVQLQESGGGLVQPGGSLRLSCAASGSPFSFGAMGWYRQAPGKQRELAAIITNAGSTMYADSVKGRFTVSRVNAKNTVSLQMNNLKPEDTAVYYCYAQTAPVADVTWGQGTQVTVSS
notes: pHEN6 vector; also called Nb 8; CA-number 3389; source: E. coli WK6 periplasm, purified (IMAC, gel filtration); not shown: His-tag, C-terminal, kept
B11: nanobody 2 (VHH)
VHH: QVQLQESGGGLVQAGGSLRLSCAASGGTFRTGGMAWFRQAPGKAREFAAGISWSGGSTDYGDSVKGRFTISRDNAKNTVYLQMNSLKPEDTAVYYCAASRRFRSGVLTRADDVDYWGKGTQVTVSS
notes: pHEN6 vector; also called Nb 2; CA-number 3381; source: E. coli WK6 periplasm, purified (IMAC, gel filtration); not shown: His-tag, C-terminal, kept
B12: nanobody 22 (VHH)
VHH: B11 VHH with R30K, T31S, G61E, V79M, S99A, S104A, L107V
notes: pHEN6 vector; also called Nb 22; CA-number 3406; source: E. coli WK6 periplasm, purified (IMAC, gel filtration); not shown: His-tag, C-terminal, kept
B13: nanobody 12 (VHH)
VHH: QVQLQESGGGLVQPGGSLRLSCVASGSIFSINAMGWYRQAPGKQRDLVAVITSRGSTNYADSVKGRFTISRDNAKNTTYLQMNSLKPEDTAVYYCNADLAAYYSGTYYDTLLYWGQGTQVTVSS
notes: pHEN6 vector; also called Nb 12; CA-number 3394; source: E. coli WK6 periplasm, purified (IMAC, gel filtration); not shown: His-tag, C-terminal, kept
B14: nanobody 17 (VHH)
VHH: QVQLQESGGGLVQPGGSLRLSCAASGSIFSINSMDWYRQAPGKQRELVATITSGGSTNYADSVKGRFTISRDNGKNTVYLQMNSLKPEDTAVYYCHAVVSTRGGYWGQGTQVTVSS
notes: pHEN6 vector; also called Nb 17; CA-number 3399; source: E. coli WK6 periplasm, purified (IMAC, gel filtration); not shown: His-tag, C-terminal, kept
B15: nanobody 20 (VHH)
VHH: B14 VHH with S27N, S30G, A60G, G74A, V78M, V99L
notes: pHEN6 vector; also called Nb 20; CA-number 3403; source: E. coli WK6 periplasm, purified (IMAC, gel filtration); not shown: His-tag, C-terminal, kept
B16: nanobody 4 (VHH)
VHH: B14 VHH with I31M, G74A, K75W, Y79T, V99L
notes: pHEN6 vector; also called Nb 4; CA-number 3383; source: E. coli WK6 periplasm, purified (IMAC, gel filtration); not shown: His-tag, C-terminal, kept
B17: nanobody 10 (VHH)
VHH: B14 VHH with G74A, S100A
notes: pHEN6 vector; also called Nb 10; CA-number 3391; source: E. coli WK6 periplasm, purified (IMAC, gel filtration); not shown: His-tag, C-terminal, kept
B18: nanobody 21 (VHH)
VHH: QVQLQESGGGLVQPGGSLRLSCAASGRIPFITAMGWYRQAPGRQRELLATVTNSGSTNYADSVKGRFTISRDNAKNTVSLQMNSLKAEDTAVYYCNVRRLGNLSDYWGQGTQVTVSS
notes: pHEN6 vector; also called Nb 21; CA-number 3404; source: E. coli WK6 periplasm, purified (IMAC, gel filtration); not shown: His-tag, C-terminal, kept

Changes are numbered by the printed parent chain.

By Kd is commonly meant a measure of binding affinity in units of concentration. Low values mean higher affinity, high ones lower affinity. One may read the koff as the first-order rate constant of dissociation. A high value points to a short-lived complex. Broadly, the kon is a measure of how fast the partners come together. High values mean fast association, low ones slow association.

The first test deals with T1, T2 mechanosensitive channel from …. Briefly: SPR; BIAcore 3000, 25 °C, 20 mM sodium phosphate pH 7.4, 150 mM NaCl, 0.03 % DDM; T2 channel amine-coupled on CM5 (1500 - 2000 RU); nanobodies 0.35 - 86.1 nM injected in triplicates; global fit to a simple bimolecular model, KD = kd/ka. Conditions: both partners purified. For orientation: In SPR one partner is held on a chip, and binding of the other changes the refractive index at the surface.
For the molecule B1, binding was put at a Kd of 48.3 nM, the koff turned out to be 0.15 s⁻¹ and the kon is 3.1e+06 M⁻¹ s⁻¹.
In the same order, the values of B2 are 1.29 nM, 0.0015 s⁻¹ and 1.35e+06 M⁻¹ s⁻¹.
Take B3: the Kd is 9.5 nM, the dissociation rate constant (koff) was 0.0091 s⁻¹ and the association rate constant (kon) was 960000 M⁻¹ s⁻¹.
With B4, the affinity, expressed as Kd, was 14.2 nM; the koff was determined as 0.0278 s⁻¹; the kon amounted to 1.98e+06 M⁻¹ s⁻¹.
Taken in the same sequence, the figures for B5 were 4.4 nM, 0.0081 s⁻¹ and 1.82e+06 M⁻¹ s⁻¹.
For B6, the dissociation constant (Kd) came to 23 nM, the off-rate (koff) turned out to be 0.07 s⁻¹ and the on-rate constant (kon) turned out to be 3e+06 M⁻¹ s⁻¹.
In turn, B7 came in with a Kd of 0.78 nM, a koff of 0.00095 s⁻¹ and a kon of 1.26e+06 M⁻¹ s⁻¹.
For B8, the Kd turned out to be 15.1 nM, the koff came to 0.0016 s⁻¹ and the kon worked out at 100000 M⁻¹ s⁻¹.
In turn, B9 returned a Kd of 1.1 nM, a koff of 0.00052 s⁻¹ and an association rate constant (kon) of 480000 M⁻¹ s⁻¹.
Taken in the same sequence, the figures for B10 were 0.58 nM, 0.00089 s⁻¹ and 1.56e+06 M⁻¹ s⁻¹.
In the same order, the values of B11 are 81.2 nM, 0.104 s⁻¹ and 1.31e+06 M⁻¹ s⁻¹.
Taken in the same sequence, the figures for B12 were 25.4 nM, 0.0061 s⁻¹ and 240000 M⁻¹ s⁻¹.
B13 had a Kd of 3.8 nM, a koff of 0.0025 s⁻¹ and a kon of 650000 M⁻¹ s⁻¹.
In the same order, the values of B14 are 4.5 nM, 0.00315 s⁻¹ and 710000 M⁻¹ s⁻¹.
Taken in the same sequence, the figures for B15 were 3.5 nM, 0.0036 s⁻¹ and 1.03e+06 M⁻¹ s⁻¹.
In the same order, the values of B16 are 3.4 nM, 0.0021 s⁻¹ and 620000 M⁻¹ s⁻¹.
In turn, B17 gave a Kd of 3.9 nM, an off-rate (koff) of 0.0036 s⁻¹ and a kon of 940000 M⁻¹ s⁻¹.
In the same order, the values of B18 are 37 nM, 0.171 s⁻¹ and 5e+06 M⁻¹ s⁻¹.

A further test has as its target His-tagged T2 mechanosensitive channel from Thermoplasma volcanium (Thermoplasma volcanium). Briefly: far-Western, overlay or dot blot; channel samples run on SDS-PAGE and blotted on nitrocellulose (His-tagged T1 0.1 µg, His-tagged T2 0.1 µg, tag free T2 0.01 and 0.1 µg); strips incubated with nanobody at 1 µg/ml for 1 hour, bound His-tagged nanobody detected with HisProbe-HRP; intensity ratio of lane 2 of the sample strip to the reference strip.
Details: not given
With B2, the ratio of WB intensities is 17.5.
Same read-out and setting: with B3 the figure was 4.59; with B5, 4.7; with B7, 16.6.
Same read-out and setting: in the case of B8 it was 14.2.
With B9, the ratio of WB intensities came out at 15.7.
Same read-out and setting: in the case of B10 it was 15; in that of B13, 7.15.
Still for that read-out and setting: with B14 the figure was 6.09.
The same measure, in the same setting: in the case of B15 it was 4.86; in that of B16, 3.87.
As to B17, the ratio of WB intensities came out at 9.8.
